Measured values: patent US20070190056A1

Target: recombinant myostatin
Experiment: cell-based or functional assay

## myostatin antagonist 350 (amino acids 267-350 of bovine myostatin) (from UniProt O18836 267-350) (peptide)
  macrophage migration towards ZAMS medium (chemotaxis assay, FIG. 9): 20 fold
